Data reported in article PMC9946822, “Widely conserved AHL transcription factors are essential for NCR gene expression and nodule development in Medicago”.

Assays:
Assay in all cases: EMSA; 0-300 ng protein titration; EMSA as in Chen (ref. 37), 10 ng probe and 200 ng protein (titration 0-300 ng), SYBR Gold stain; binding buffer, pH and temperature not stated; protein eluted in BS/THES (22 mM Tris-HCl pH 7.5, 4.4 mM EDTA, 8.9% sucrose, 62 mM NaCl, 10 mM HEPES, 5 mM CaCl2, 50 mM KCl, 12% glycerol) with 150 mM imidazole
Conditions in all cases: protein: recombinant; tags: His (pET28a); blunt
[1] = target: MtAHL2 (Medicago truncatula, UniProt G7KSI4 1-269)
MtAHL2, sequence (G7KSI4 entry or part of it): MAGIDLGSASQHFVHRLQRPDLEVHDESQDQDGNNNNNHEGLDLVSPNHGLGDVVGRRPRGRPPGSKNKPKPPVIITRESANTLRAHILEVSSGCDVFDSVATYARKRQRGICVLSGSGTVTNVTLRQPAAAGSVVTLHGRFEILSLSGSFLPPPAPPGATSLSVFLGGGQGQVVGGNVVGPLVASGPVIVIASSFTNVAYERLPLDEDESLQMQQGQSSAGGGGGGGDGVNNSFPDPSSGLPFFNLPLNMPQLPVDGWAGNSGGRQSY

[2] = target: GmAHL1 (Glycine max, UniProt C6TMY6 1-268)
GmAHL1, sequence (C6TMY6 entry or part of it): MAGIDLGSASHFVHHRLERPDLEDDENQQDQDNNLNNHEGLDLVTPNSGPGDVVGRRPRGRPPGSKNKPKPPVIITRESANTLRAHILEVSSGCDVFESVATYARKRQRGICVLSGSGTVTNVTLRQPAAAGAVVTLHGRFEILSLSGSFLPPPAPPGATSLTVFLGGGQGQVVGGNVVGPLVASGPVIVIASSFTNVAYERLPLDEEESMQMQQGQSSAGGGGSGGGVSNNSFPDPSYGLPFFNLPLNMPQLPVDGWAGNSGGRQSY

[3] = target: MtAHL1 (Medicago truncatula, UniProt G7JGG2 1-296)
MtAHL1, sequence (G7JGG2 entry or part of it): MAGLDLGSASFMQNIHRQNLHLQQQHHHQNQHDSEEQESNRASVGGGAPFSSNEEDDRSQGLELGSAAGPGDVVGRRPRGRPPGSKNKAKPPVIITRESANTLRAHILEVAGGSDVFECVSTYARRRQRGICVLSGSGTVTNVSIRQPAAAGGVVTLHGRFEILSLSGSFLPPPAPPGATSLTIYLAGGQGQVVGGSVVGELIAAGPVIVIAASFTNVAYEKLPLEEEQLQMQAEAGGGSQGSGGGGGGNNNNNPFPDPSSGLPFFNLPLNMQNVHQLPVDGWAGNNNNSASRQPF

Measured: binding result

B1: probe H0 (dsDNA)
DNA 1: TTAATAATTATTTTAATTTTCAAAAAGTATTAATTAC
DNA 2: GTAATTAATACTTTTTGAAAATTAAAATAATTATTAA
binds: all assays above
